Assay results as given in PMC3326312.

Experiments:
[1] = biological target: T1, core RNA polymerase (wild type);sigma70 (Escherichia coli;Escherichia coli, UniProt P0A7Z4;P0A8V2;P0A8T7;P00579 1-329;1-1342;1-1407;1-613, |); assay: KMnO4 footprinting
[2] = biological target: T2, core RNA polymerase (wild type) (Escherichia coli, UniProt P0A7Z4;P0A8V2;P0A8T7 1-329;1-1342;1-1407); assay: KMnO4 footprinting
[3] = biological target: T1, core RNA polymerase (wild type);sigma70; assay: ExoIII footprinting
[4] = biological target: core RNA polymerase (wild type);sigma70 fragment 1-448 (Escherichia coli;Escherichia coli, UniProt P0A7Z4;P0A8V2;P0A8T7;P00579 1-329;1-1342;1-1407;1-448, |); assay: ExoIII footprinting
[5] = biological target: T2, core RNA polymerase (wild type); assay: ExoIII footprinting

T1 sequence (P0A7Z4 whole entry, chain 1 of 3): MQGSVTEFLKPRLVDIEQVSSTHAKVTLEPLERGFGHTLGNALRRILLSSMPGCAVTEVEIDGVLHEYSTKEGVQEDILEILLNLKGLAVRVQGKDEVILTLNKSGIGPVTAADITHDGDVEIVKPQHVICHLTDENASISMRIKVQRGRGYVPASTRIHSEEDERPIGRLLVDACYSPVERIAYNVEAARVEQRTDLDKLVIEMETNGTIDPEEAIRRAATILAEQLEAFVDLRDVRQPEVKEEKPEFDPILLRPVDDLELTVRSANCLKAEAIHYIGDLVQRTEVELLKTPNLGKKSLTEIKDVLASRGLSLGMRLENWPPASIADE
T1 sequence (P0A8V2 whole entry, chain 2 of 3): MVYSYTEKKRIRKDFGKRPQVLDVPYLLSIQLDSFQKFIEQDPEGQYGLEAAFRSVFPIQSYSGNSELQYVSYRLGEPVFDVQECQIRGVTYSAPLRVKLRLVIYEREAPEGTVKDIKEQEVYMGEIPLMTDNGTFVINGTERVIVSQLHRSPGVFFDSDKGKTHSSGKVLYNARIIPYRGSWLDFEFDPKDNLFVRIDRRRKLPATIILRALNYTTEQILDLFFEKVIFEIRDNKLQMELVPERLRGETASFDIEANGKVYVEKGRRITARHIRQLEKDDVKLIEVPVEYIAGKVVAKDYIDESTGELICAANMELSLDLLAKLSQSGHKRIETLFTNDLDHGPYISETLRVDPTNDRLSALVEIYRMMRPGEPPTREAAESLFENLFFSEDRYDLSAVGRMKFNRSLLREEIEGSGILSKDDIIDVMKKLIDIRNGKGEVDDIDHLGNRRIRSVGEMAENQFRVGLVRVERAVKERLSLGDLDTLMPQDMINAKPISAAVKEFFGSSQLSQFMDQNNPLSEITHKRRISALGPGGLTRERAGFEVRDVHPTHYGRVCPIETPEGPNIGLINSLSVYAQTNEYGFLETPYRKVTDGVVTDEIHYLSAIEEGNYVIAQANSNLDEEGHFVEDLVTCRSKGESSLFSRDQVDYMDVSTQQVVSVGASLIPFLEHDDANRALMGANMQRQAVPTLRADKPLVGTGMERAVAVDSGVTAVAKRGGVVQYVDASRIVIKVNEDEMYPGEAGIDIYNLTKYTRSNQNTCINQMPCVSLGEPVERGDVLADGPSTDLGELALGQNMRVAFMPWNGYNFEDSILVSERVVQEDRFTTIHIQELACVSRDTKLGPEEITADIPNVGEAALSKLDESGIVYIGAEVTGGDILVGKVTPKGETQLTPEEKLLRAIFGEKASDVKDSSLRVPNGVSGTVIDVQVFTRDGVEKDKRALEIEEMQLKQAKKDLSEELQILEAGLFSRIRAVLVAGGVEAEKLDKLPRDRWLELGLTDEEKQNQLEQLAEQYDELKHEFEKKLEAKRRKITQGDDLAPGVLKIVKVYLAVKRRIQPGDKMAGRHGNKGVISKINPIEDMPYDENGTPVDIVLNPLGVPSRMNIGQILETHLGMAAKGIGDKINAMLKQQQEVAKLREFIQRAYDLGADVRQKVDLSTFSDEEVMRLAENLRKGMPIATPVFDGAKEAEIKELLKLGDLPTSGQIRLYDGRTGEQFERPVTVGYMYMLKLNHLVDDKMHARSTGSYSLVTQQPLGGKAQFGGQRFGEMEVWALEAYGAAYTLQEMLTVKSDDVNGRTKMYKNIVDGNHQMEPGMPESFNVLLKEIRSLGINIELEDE
T1 sequence (P00579 whole entry, chain 4 of 3): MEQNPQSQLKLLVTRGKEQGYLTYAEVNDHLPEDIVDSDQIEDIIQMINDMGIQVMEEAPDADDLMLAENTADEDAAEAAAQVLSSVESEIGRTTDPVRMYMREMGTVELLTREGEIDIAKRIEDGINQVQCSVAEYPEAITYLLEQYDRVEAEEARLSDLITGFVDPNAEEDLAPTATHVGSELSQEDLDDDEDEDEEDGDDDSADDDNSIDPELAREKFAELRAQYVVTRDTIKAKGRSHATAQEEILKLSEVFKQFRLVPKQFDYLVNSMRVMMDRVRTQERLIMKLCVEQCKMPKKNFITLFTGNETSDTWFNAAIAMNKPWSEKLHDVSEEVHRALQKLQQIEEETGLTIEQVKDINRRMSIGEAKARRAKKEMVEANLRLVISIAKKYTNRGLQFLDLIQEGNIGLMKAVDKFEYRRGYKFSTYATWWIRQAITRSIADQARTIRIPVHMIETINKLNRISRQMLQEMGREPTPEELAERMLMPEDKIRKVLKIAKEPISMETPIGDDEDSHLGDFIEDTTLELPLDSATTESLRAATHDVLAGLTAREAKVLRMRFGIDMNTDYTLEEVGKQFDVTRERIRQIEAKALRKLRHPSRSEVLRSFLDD
T2 sequence (P0A7Z4 whole entry, chain 1 of 2): as the sequence (P0A7Z4 whole entry, chain 1 of 3) above
T2 sequence (P0A8V2 whole entry, chain 2 of 2): as the sequence (P0A8V2 whole entry, chain 2 of 3) above

| Binder | binding result [1] | binding result [2] | binding result [3] | binding result [4] | binding result [5] |
| --- | --- | --- | --- | --- | --- |
| Cons scaffold, 20-mer RNA (mixed) DNA 1: AGGATACTTAGTGCTATAATGAGCGGATCGCATGTTCACACAGGAAACAGCTGATTGCCC DNA 2: GGGCAATCAGCTGTTTCCTGTGTGAACATGCGATCCGCTCATTATAGCACTAAGTATCCT RNA: AUCACGAUAAAUGAGCGGAU | binds | binds |  |  |  |
| Cons_up scaffold, 20-mer RNA (mixed) DNA 1: CAGTGAATTCAGGATACTTAGTGCTATAATGAGCGGATCGCATGTTCACACAGGAAACAGCTGATTGCCC DNA 2: GGGCAATCAGCTGTTTCCTGTGTGAACATGCGATCCGCTCATTATAGCACTAAGTATCCTGAATTCACTG RNA: AUCACGAUAAAUGAGCGGAU |  |  | binds | binds | binds |
